Assay results taken from the supplement of paper PMC10266784.

B1: library; numbered along this chain (parent)
chain: MAAAAAAAAEQQSSNGPVKKSMREKAVERRSVNKEHNSNFKAGYIPIDEDRLHKTGLRGRKGNLAICVIILLFILAVINLIITLVIWAVIRIGPNGCDSMEFHESGLLRFKQVSDMGVIHPLYKSTVGGRRNENLVITGNNQPIVFQQGTTKLSVENNKTSITSDIGMQFFDPRTQNILFSTDYETHEFHLPSGVKSLNVQKASTERITSNATSDLNIKVDGRAIVRGNEGVFIMGKTIEFHMGGNMELKAENSIILNGSVMVSTTRLPSSSSGDQLGSGDWVRYKLCMCADGTLFKVQVTSQNMGCQISDNPCGNTH

Variants of: B1
Experiment: SGCB cell-surface expression functional score (HA stain, bin4 vs bin1, normalised to synonymous) (log10 ratio); higher = more cell-surface SGCB (functional)
Protocol: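 Deep mutational scan of full-length human SGCB (YFP-SGCB-HA, NNN codon sublibraries A-F) delivered by lentivirus at low MOI into ADG-HEK293 cells stably expressing SGCA, SGCD and SGCG. YFP-positive cells were stained for surface HA on unpermeabilized cells and FACS-sorted into bins. The functional score is log10(frequency in high bin 4 / frequency in low bin 1), normalised per chunk so that synonymous variants have mean 0 and SD 0.5. Scores are the median over codons and over duplicate biological replicates; scores below -0.5 are called non-functional. Scale: negative means deleterious.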

Going from MRAAAAAAAEQQSSNGPVKKSMREKAVERRSVNKEHNSNFKAGYIPIDEDRLHKTGLRGRKGNLAICVIILLFILAVINLIITLVIWAVIRIGPNGCDSMEFHESGLLRFKQVSDMGVIHPLYKSTVGGRRNENLVITGNNQPIVFQQGTTKLSVENNKTSITSDIGMQFFDPRTQNILFSTDYETHEFHLPSGVKSLNVQKASTERITSNATSDLNIKVDGRAIVRGNEGVFIMGKTIEFHMGGNMELKAENSIILNGSVMVSTTRLPSSSSGDQLGSGDWVRYKLCMCADGTLFKVQVTSQNMGCQISDNPCGNTH [A2R] to MHAAAAAAAEQQSSNGPVKKSMREKAVERRSVNKEHNSNFKAGYIPIDEDRLHKTGLRGRKGNLAICVIILLFILAVINLIITLVIWAVIRIGPNGCDSMEFHESGLLRFKQVSDMGVIHPLYKSTVGGRRNENLVITGNNQPIVFQQGTTKLSVENNKTSITSDIGMQFFDPRTQNILFSTDYETHEFHLPSGVKSLNVQKASTERITSNATSDLNIKVDGRAIVRGNEGVFIMGKTIEFHMGGNMELKAENSIILNGSVMVSTTRLPSSSSGDQLGSGDWVRYKLCMCADGTLFKVQVTSQNMGCQISDNPCGNTH [A2H], the “SGCB cell-surface expression functional score (log10)” value rises from 0.03 to 0.34.

MKAAAAAAAEQQSSNGPVKKSMREKAVERRSVNKEHNSNFKAGYIPIDEDRLHKTGLRGRKGNLAICVIILLFILAVINLIITLVIWAVIRIGPNGCDSMEFHESGLLRFKQVSDMGVIHPLYKSTVGGRRNENLVITGNNQPIVFQQGTTKLSVENNKTSITSDIGMQFFDPRTQNILFSTDYETHEFHLPSGVKSLNVQKASTERITSNATSDLNIKVDGRAIVRGNEGVFIMGKTIEFHMGGNMELKAENSIILNGSVMVSTTRLPSSSSGDQLGSGDWVRYKLCMCADGTLFKVQVTSQNMGCQISDNPCGNTH [A2K] and MYAAAAAAAEQQSSNGPVKKSMREKAVERRSVNKEHNSNFKAGYIPIDEDRLHKTGLRGRKGNLAICVIILLFILAVINLIITLVIWAVIRIGPNGCDSMEFHESGLLRFKQVSDMGVIHPLYKSTVGGRRNENLVITGNNQPIVFQQGTTKLSVENNKTSITSDIGMQFFDPRTQNILFSTDYETHEFHLPSGVKSLNVQKASTERITSNATSDLNIKVDGRAIVRGNEGVFIMGKTIEFHMGGNMELKAENSIILNGSVMVSTTRLPSSSSGDQLGSGDWVRYKLCMCADGTLFKVQVTSQNMGCQISDNPCGNTH [A2Y] are within 0.2 log units of each other in “SGCB cell-surface expression functional score (log10)” value: 0.23 for the first, 0.14 for the second.

MEAAAAAAAEQQSSNGPVKKSMREKAVERRSVNKEHNSNFKAGYIPIDEDRLHKTGLRGRKGNLAICVIILLFILAVINLIITLVIWAVIRIGPNGCDSMEFHESGLLRFKQVSDMGVIHPLYKSTVGGRRNENLVITGNNQPIVFQQGTTKLSVENNKTSITSDIGMQFFDPRTQNILFSTDYETHEFHLPSGVKSLNVQKASTERITSNATSDLNIKVDGRAIVRGNEGVFIMGKTIEFHMGGNMELKAENSIILNGSVMVSTTRLPSSSSGDQLGSGDWVRYKLCMCADGTLFKVQVTSQNMGCQISDNPCGNTH [A2E] and MFAAAAAAAEQQSSNGPVKKSMREKAVERRSVNKEHNSNFKAGYIPIDEDRLHKTGLRGRKGNLAICVIILLFILAVINLIITLVIWAVIRIGPNGCDSMEFHESGLLRFKQVSDMGVIHPLYKSTVGGRRNENLVITGNNQPIVFQQGTTKLSVENNKTSITSDIGMQFFDPRTQNILFSTDYETHEFHLPSGVKSLNVQKASTERITSNATSDLNIKVDGRAIVRGNEGVFIMGKTIEFHMGGNMELKAENSIILNGSVMVSTTRLPSSSSGDQLGSGDWVRYKLCMCADGTLFKVQVTSQNMGCQISDNPCGNTH [A2F] are within 0.2 log units of each other in “SGCB cell-surface expression functional score (log10)” value: -0.61 for the first, -0.48 for the second.

Compared with MDAAAAAAAEQQSSNGPVKKSMREKAVERRSVNKEHNSNFKAGYIPIDEDRLHKTGLRGRKGNLAICVIILLFILAVINLIITLVIWAVIRIGPNGCDSMEFHESGLLRFKQVSDMGVIHPLYKSTVGGRRNENLVITGNNQPIVFQQGTTKLSVENNKTSITSDIGMQFFDPRTQNILFSTDYETHEFHLPSGVKSLNVQKASTERITSNATSDLNIKVDGRAIVRGNEGVFIMGKTIEFHMGGNMELKAENSIILNGSVMVSTTRLPSSSSGDQLGSGDWVRYKLCMCADGTLFKVQVTSQNMGCQISDNPCGNTH [A2D], MQAAAAAAAEQQSSNGPVKKSMREKAVERRSVNKEHNSNFKAGYIPIDEDRLHKTGLRGRKGNLAICVIILLFILAVINLIITLVIWAVIRIGPNGCDSMEFHESGLLRFKQVSDMGVIHPLYKSTVGGRRNENLVITGNNQPIVFQQGTTKLSVENNKTSITSDIGMQFFDPRTQNILFSTDYETHEFHLPSGVKSLNVQKASTERITSNATSDLNIKVDGRAIVRGNEGVFIMGKTIEFHMGGNMELKAENSIILNGSVMVSTTRLPSSSSGDQLGSGDWVRYKLCMCADGTLFKVQVTSQNMGCQISDNPCGNTH [A2Q] is higher in “SGCB cell-surface expression functional score (log10)” value: -0.07 for the first, 0.19 for the second.

In the case of MGAAAAAAAEQQSSNGPVKKSMREKAVERRSVNKEHNSNFKAGYIPIDEDRLHKTGLRGRKGNLAICVIILLFILAVINLIITLVIWAVIRIGPNGCDSMEFHESGLLRFKQVSDMGVIHPLYKSTVGGRRNENLVITGNNQPIVFQQGTTKLSVENNKTSITSDIGMQFFDPRTQNILFSTDYETHEFHLPSGVKSLNVQKASTERITSNATSDLNIKVDGRAIVRGNEGVFIMGKTIEFHMGGNMELKAENSIILNGSVMVSTTRLPSSSSGDQLGSGDWVRYKLCMCADGTLFKVQVTSQNMGCQISDNPCGNTH [A2G], the “SGCB cell-surface expression functional score (log10)” value is reported as 0.17.
